The source of these data is patent publication US20240000956A1.

In assay [1] the target is LecRLK-2RPAN (Salix purpurea). As to the kind of experiment: size exclusion chromatography, self-association. On the technique in general: SEC sorts molecules by how far they enter the pores of the column.
In assay [2] the target is SpG-type LecRLK-2PAN (Salix purpurea). Nature of the assay: size exclusion chromatography, self-association.

Consider LecRLK-2RPAN (receptor), for which, in assay [1], the percent monomeric amounted to 26.4%.

For SpG-type LecRLK-2PAN (receptor), in assay [2], the percent in higher-order complex (likely a trimer or tetramer) worked out at 48.2% and the percent monomeric worked out at 51.8%.
